# Measurements taken from patent publication US20240207432A1 (BIOSION, published 2024).
# Substitutions are numbered along the chain they refer to.
# T1: human TROP2-his protein (human, UniProt P09758 27-274)
# T1 construct: Biotin-labelled in the ELISAs, unlabelled analyte in Biacore; also called biotin-labeled human TROP2-his protein; biotin human Trop2-his
# T1 sequence: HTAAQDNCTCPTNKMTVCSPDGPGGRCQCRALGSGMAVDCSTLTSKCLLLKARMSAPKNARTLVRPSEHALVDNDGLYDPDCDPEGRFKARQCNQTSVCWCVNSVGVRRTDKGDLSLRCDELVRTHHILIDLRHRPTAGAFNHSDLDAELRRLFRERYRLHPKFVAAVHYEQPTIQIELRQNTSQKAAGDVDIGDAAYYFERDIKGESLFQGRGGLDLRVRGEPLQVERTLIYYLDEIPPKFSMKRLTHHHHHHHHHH
# B1: huA1E4F7D4-V2 (antibody, human IgG1, kappa, V domains shown)
# VH: QVQLVQSGAEVKKPGASVKVSCKASGYSFTTHWIHWVRQAPGQGLEWIGTIFPSNAYAVYNQKFRDRATMTADRSISTAYIELSRLRSDDTAVYYCARASYFDYWGQGTTVTVSS
# VL: EIVLTQSPATLSLSPGERATLSCRASQNIGTSIHWFQQKPGGSPRLLIKYASESISGIPSRFSGSGSGTDFTLTISSLEPEDFAVYYCQHSHSWPFTFGQGTKLEIKR
# notes: Positions of the X residues are printed in CLM-00002, CLM-00003 and CLM-00005; Tested as cell supernatant
# B2: huA1E4F7D4-V14 (antibody, human IgG1, kappa, V domains shown)
# VH: B1 VH with A68V
# VL: B1 VL with S43A
# notes: Positions of the X residues are given in the claims; Tested as cell supernatant
# B3: huA1E4F7D4-V12 (antibody, human IgG1, kappa, V domains shown)
# VH: B1 VH
# VL: B1 VL with S43A
# notes: as for B2
# B4: huA1E4F7D4-V10 (antibody, human IgG1, kappa, V domains shown)
# VH: B1 VH with A72R
# VL: B1 VL with G42Q
# notes: as for B2
# B5: huA1E4F7D4-V19 (antibody, human IgG1, kappa, V domains shown)
# VH: B1 VH with A68V
# VL: B1 VL with K49Y
# notes: as for B2
# B6: huA1E4F7D4-V18 (antibody, human IgG1, kappa, V domains shown)
# VH: B1 VH with S28T
# VL: B1 VL with K49Y
# notes: as for B2
# B7: huA1E4F7D4-V7 (antibody, human IgG1, kappa, V domains shown)
# VH: B1 VH
# VL: B1 VL with G42Q
# notes: as for B2
# B8: huA1E4F7D4-V15 (antibody, human IgG1, kappa, V domains shown)
# VH: B1 VH with A72R
# VL: B1 VL with S43A
# notes: as for B2
# B9: huA1E4F7D4-V17 (antibody, human IgG1, kappa, V domains shown)
# VH: B1 VH
# VL: B1 VL with K49Y
# notes: as for B2
# B10: huA1E4F7D4-V8 (antibody, human IgG1, kappa, V domains shown)
# VH: B1 VH with S28T
# VL: B1 VL with G42Q
# notes: as for B2
# B11: huA1E4F7D4-V9 (antibody, human IgG1, kappa, V domains shown)
# VH: B1 VH with A68V
# VL: B1 VL with G42Q
# notes: as for B2
# B12: huA1E4F7D4-V21 (antibody, human IgG1, kappa, V domains shown)
# VH: B1 VH with R74T
# VL: B1 VL with K49Y
# notes: as for B2
# B13: huA1E4F7D4-V4 (antibody, human IgG1, kappa, V domains shown)
# VH: B1 VH with A68V
# VL: B1 VL
# notes: as for B2
# B14: huA1E4F7D4-V11 (antibody, human IgG1, kappa, V domains shown)
# VH: B1 VH with R74T
# VL: B1 VL with G42Q
# notes: as for B2
# B15: huA1E4F7D4-V1 (antibody, human IgG1, kappa, V domains shown)
# VH: B1 VH with V37M, R38K, A40R, T69I, S84T
# VL: B1 VL with E1D, V3L, L78V
# notes: Positions of the X residues are printed in CLM-00003 and CLM-00005; Tested as cell supernatant
# B16: huA1E4F7D4-V3 (antibody, human IgG1, kappa, V domains shown)
# VH: B1 VH with S28T
# VL: B1 VL
# notes: as for B2
# B17: huA1E4F7D4-V13 (antibody, human IgG1, kappa, V domains shown)
# VH: B1 VH with S28T
# VL: B1 VL with S43A
# notes: as for B2
# B18: huA1E4F7D4-V5 (antibody, human IgG1, kappa, V domains shown)
# VH: B1 VH with A72R
# VL: B1 VL
# notes: as for B2
# B19: huA1E4F7D4-V20 (antibody, human IgG1, kappa, V domains shown)
# VH: B1 VH with A72R
# VL: B1 VL with K49Y
# notes: as for B2
# B20: huA1E4F7D4-V6 (antibody, human IgG1, kappa, V domains shown)
# VH: B1 VH with R74T
# VL: B1 VL
# notes: as for B2
# Molecular target: T1, human TROP2-his protein
# Assay: SPR Biacore T200, supernatant antibody captured on anti-human IgG CM5 chip, 40 nM human TROP2-his
# Protocol: The goat anti-human IgG (GE healthcare, Cat #BR100839, Human Antibody Capture Kit) was covalently linked to a CM5 chip instead of goat anti-mouse IgG. […] The human TROP2-his protein at the concentration of 40 nM was used instead of serially diluted human TROP2-his protein.
Kd [pM],koff [s⁻¹],kon [M⁻¹ s⁻¹],Binder
215,0.000188,874000,B1
232,0.000193,834000,B2
211,0.000192,909000,B3
314,0.000206,656000,B4
261,0.000304,1.16e+06,B5
230,0.00028,1.22e+06,B6
216,0.000192,887000,B7
359,0.000205,571000,B8
232,0.000279,1.2e+06,B9
235,0.000195,832000,B10
223,0.000193,865000,B11
188,0.000271,1.44e+06,B12
215,0.00019,883000,B13
163,0.000175,1.08e+06,B14
238,0.000197,830000,B15
238,0.000199,836000,B16
221,0.000199,898000,B17
353,0.000204,577000,B18
335,0.00029,868000,B19
166,0.000179,1.08e+06,B20
